{"source": "patent US7977317B2", "about": "“Compositions and methods for modulating blood-brain barrier transport” (Raptor Pharmaceutical Inc., priority 2001, dated 2011)", "key": {"[1]": {"tested_on": "LRP1B", "experiment": "RT-PCR after p97 and RAP treatments in U-87 cells: LRP1B", "type": "cell-based, human", "details": "72 hours, RT-PCR (FIG. 35)", "method": "FIG. 34. Effect of p97 and RAP treatments in U-87 cells. A. Cells (2×10^5) were plated onto six-multiwell microplates and grown at 37° C. under 5% CO2 with optimal culture medium supplemented with serum for 4 days. Treatment was performed in serum free medium for 72 hours. RNA isolation and RT-PCR were performed as described in the Examples. B. LRP/LRP1B was immunodetected in cells lysates as described in the Examples. […] (N=2 for p97 treatment), (n=1 for RAP treatment)\n(§1) FIG. 35. Effect of p97 and RAP treatments in U-87 cells (RT-PCR). Cells (2×10^5) were plated onto six-multiwell microplates and grown at 37° C. under 5% CO2 with optimal culture medium supplemented with serum for 4 days. Treatment was performed in serum free medium for 72 hours. RNA isolation and RT-PCR were performed as described in the Examples. The amplified PCR products were electrophoresed on a 2% agarose gel and visualized under ultraviolet light. (n=2 for p97), (n=1 for RAP)\n(§2) RNA extraction. Cells in six-wells plate or in 75 cm^2 plastic tissue culture flasks were grown at 37° C. under 5% CO2 with optimal culture medium to 80-90% confluence. Total cellular RNA was preserved in Trizol (Gibco BRL, Burlington, ON). The solution are frozen at −80° C. until extraction. The solution was defroze and mixed with 5:1 chloroform for 3 minutes at room temperature. The suspension was centrifugated at 12000 g at 4° C. […]"}, "[2]": {"tested_on": "Megalin", "experiment": "RT-PCR after p97 treatment in U-87 cells: Megalin", "type": "cell-based, human", "details": "72 hours, RT-PCR (FIG. 35)", "method": "as §1\n(§3) FIG. 38. Effect of p97 and RAP treatments in U-87 cells on expression of cubulin (A), P97 (B) and Megalin (C). The amplified PCR products were electrophoresed on a 2% agarose gel and visualized under ultraviolet light. (n=1). Quantification was by densitometry of p97 and RAP treatments on the RNA levels of LRP1B, LRP, LDL-R, cubilin, endogenous p97 and megalin. Results are expressed as ratios of RNA levels between control and treated U-87 cells.\nas §2"}, "[3]": {"experiment": "Brain uptake one hour after i.v. injection", "type": "in vivo", "details": "mice, one hour after i.v. injection of [125I]-protein (FIG. 11a)", "method": "FIG. 11 examines the accumulation and transcytosis of p97. FIG. 11a, of [^125I]-p97, [^125I]-BSA and [^125I]-holo-transferrin one hour after i.v. injection. The radioactivity in brain was compared between the three compounds. (n=3); FIG. 11b, Accumulation of p97 and transferrin into the mouse brain parenchyma. In situ brain perfusion was performed with human [^125I]-p97 or [^125I]-holo-transferrin at a final concentration of 10 nM via a catheter inserted in the right common carotid artery. The volume of distribution (VD) of [^125I]-proteins were obtained in the whole brain homogenate (white bars), in brain capillaries (solid bars) and in brain parenchyma (hatched bars) after isolation of the right hemisphere and capillary depletion. Results were obtained for p97 (n=10) and for holo-transferrin (n=6); FIG. 11c, Transcytosis of p97 across BBCEC monolayers. Transcytosis experiments were performed 37° C. (open circles) and 4° C. (closed circles) with BBCEC monolayers. […] Apical-to-basal and basal-to-apical transport of [^125I]-p97 (25 nM) was measured for 2 hrs at 37° C. At the end of the experiment, [^125I]-p97 was assessed in the lower or upper chambers of each well by TCA precipitation (n=4).\nA. Brain uptake and in situ brain perfusion. […] The serum and brain samples were collected and the levels of radioactivity were measured. […]"}, "[4]": {"tested_on": "U-87 cells", "experiment": "Morphology of U-87 cells after p97 treatment", "type": "cell-based, human", "details": "FIG. 33"}, "[5]": {"tested_on": "Cubilin", "experiment": "RT-PCR after p97 treatment in U-87 cells: Cubilin", "type": "cell-based, human", "details": "72 hours, RT-PCR (FIG. 35)", "method": "as §1, §3, §2"}, "[6]": {"molecular_target": "BBCEC monolayers", "details": "−saponin, cited from earlier work"}, "[7]": {"molecular_target": "Megalin (Homo sapiens, UniProt P98164)", "sequence (P98164 26-4655, species assumed)": "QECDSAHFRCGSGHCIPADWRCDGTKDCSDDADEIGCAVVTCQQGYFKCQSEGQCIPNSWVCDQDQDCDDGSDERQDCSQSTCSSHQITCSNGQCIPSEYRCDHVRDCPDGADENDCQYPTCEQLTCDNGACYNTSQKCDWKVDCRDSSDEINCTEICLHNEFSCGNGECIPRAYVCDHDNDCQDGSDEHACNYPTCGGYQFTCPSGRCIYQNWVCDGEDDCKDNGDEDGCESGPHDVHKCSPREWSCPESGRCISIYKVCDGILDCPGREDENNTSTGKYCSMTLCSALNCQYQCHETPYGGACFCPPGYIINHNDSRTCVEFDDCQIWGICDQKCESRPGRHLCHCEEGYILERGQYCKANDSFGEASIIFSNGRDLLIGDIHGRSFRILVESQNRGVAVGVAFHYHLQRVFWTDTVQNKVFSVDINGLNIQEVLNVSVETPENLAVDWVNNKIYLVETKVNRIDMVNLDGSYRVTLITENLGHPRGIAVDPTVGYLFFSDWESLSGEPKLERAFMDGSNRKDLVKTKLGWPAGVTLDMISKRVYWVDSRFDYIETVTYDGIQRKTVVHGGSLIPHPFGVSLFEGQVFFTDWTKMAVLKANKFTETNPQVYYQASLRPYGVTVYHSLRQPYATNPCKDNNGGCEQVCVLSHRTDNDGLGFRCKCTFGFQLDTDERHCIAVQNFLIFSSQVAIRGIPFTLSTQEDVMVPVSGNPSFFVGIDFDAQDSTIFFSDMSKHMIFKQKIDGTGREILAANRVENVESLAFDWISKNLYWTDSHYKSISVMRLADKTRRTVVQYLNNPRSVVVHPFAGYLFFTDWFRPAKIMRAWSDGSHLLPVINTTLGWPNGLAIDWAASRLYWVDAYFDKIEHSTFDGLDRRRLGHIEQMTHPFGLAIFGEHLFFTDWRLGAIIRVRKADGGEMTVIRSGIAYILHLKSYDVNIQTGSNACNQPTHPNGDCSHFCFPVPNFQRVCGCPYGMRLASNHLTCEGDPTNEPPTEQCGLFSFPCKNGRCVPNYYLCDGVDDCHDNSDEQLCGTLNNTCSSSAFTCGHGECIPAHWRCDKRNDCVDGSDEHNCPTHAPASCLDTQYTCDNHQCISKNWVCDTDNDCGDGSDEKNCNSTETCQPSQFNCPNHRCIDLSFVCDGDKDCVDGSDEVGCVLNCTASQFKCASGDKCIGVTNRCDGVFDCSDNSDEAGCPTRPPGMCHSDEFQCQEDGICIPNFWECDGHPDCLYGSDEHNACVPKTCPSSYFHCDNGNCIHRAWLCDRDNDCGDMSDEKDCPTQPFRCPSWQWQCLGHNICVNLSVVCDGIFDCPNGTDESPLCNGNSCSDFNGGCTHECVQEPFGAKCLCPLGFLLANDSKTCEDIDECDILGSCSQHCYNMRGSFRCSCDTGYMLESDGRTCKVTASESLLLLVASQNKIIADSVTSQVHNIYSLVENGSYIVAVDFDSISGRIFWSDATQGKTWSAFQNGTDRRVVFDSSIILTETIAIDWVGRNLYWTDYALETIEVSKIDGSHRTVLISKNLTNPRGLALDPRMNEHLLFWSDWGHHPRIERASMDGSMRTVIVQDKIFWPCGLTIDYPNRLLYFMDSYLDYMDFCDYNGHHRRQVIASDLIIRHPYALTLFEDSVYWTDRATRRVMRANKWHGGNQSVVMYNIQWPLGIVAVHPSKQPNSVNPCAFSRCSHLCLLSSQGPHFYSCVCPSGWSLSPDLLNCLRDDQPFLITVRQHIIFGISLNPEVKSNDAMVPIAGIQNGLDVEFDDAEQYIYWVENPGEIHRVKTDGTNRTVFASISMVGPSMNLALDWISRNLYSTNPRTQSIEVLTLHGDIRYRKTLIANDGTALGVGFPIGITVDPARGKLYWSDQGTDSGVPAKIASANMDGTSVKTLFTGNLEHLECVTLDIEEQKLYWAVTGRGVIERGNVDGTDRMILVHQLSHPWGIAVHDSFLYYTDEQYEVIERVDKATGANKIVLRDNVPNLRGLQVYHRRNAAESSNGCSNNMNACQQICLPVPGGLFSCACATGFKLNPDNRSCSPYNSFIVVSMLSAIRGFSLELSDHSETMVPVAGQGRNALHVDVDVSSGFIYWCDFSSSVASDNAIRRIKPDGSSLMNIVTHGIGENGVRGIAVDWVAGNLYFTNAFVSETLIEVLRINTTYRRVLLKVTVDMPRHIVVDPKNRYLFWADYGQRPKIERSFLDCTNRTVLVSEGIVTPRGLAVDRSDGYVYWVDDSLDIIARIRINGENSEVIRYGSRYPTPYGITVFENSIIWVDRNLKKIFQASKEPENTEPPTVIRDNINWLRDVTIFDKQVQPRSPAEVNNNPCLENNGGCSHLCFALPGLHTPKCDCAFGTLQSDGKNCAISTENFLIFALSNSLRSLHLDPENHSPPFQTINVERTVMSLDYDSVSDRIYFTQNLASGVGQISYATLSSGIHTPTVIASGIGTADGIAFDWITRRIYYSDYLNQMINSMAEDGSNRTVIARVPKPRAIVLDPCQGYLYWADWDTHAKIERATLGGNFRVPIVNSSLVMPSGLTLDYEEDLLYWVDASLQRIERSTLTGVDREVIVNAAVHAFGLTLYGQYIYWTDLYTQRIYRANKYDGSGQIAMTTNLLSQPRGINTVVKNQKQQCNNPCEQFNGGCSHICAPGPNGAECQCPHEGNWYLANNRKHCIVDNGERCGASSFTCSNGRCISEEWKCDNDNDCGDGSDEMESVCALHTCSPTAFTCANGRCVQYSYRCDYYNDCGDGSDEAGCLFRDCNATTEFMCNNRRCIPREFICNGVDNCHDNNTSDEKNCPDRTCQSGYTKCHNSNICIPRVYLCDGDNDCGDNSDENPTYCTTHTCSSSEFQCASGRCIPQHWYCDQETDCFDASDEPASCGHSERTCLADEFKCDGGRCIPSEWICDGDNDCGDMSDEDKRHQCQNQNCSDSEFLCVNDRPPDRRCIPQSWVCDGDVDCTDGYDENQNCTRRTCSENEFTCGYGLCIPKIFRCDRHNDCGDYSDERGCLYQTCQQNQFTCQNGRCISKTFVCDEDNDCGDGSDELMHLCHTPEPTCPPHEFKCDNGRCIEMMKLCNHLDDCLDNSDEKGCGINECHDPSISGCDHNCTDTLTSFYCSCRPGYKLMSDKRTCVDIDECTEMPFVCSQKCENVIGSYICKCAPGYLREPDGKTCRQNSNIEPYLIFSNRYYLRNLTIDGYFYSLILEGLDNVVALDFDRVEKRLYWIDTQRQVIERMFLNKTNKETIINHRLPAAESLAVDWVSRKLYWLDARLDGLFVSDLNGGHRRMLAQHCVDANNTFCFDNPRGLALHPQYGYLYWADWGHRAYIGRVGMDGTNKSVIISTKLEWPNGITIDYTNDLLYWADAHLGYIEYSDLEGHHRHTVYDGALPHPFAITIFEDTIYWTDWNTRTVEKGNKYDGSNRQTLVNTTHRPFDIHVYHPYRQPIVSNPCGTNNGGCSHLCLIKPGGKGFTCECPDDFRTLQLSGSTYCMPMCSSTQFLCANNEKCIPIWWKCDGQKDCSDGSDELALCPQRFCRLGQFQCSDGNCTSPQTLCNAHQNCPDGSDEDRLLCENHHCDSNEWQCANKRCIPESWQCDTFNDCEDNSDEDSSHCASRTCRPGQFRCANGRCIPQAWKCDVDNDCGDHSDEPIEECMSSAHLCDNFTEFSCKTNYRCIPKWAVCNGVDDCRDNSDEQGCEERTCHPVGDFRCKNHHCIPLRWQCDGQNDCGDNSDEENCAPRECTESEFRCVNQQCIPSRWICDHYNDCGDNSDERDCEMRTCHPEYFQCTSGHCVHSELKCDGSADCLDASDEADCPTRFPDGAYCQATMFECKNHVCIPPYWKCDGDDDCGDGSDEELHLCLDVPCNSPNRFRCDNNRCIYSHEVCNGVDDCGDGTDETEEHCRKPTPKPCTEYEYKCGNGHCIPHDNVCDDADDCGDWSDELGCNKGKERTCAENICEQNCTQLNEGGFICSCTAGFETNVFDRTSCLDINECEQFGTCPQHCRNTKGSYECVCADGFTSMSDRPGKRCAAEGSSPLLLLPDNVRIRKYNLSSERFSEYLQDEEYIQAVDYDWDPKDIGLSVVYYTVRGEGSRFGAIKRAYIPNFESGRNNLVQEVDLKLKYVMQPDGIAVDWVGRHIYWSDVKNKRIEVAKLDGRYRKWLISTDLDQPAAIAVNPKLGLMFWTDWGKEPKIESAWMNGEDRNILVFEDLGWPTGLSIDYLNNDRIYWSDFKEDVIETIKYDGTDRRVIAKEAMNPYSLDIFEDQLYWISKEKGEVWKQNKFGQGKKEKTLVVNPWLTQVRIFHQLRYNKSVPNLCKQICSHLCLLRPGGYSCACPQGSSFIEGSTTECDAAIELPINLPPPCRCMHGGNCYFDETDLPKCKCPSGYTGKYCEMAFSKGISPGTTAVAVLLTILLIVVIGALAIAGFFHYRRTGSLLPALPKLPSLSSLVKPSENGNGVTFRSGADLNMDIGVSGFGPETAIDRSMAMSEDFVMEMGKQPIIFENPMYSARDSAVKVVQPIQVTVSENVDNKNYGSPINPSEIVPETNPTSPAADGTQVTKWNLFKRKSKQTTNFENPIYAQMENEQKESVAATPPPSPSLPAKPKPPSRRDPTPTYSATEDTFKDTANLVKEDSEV", "details": "Tables 1-3; cited from earlier work"}}, "note": "Like-named read-outs stand apart in the source and are kept apart here.", "data": [{"molecule": "p97: recombinant human melanotransferrin (p97), provided by Synapse Technologies (protein, UniProt P08582 20-709, looked up) Melanotransferrin: GMEVRWCATSDPEQHKCGNMSEAFREAGIQPSLLCVRGTSADHCVQLIAAQEADAITLDGGAIYEAGKEHGLKPVVGEVYDQEVGTSYYAVAVVRRSSHVTIDTLKGVKSCHTGINRTVGWNVPVGYLVESGRLSVMGCDVLKAVSDYFGGSCVPGAGETSYSESLCRLCRGDSSGEGVCDKSPLERYYDYSGAFRCLAEGAGDVAFVKHSTVLENTDGKTLPSWGQALLSQDFELLCRDGSRADVTEWRQCHLARVPAHAVVVRADTDGGLIFRLLNEGQRLFSHEGSSFQMFSSEAYGQKDLLFKDSTSELVPIATQTYEAWLGHEYLHAMKGLLCDPNRLPPYLRWCVLSTPEIQKCGDMAVAFRRQRLKPEIQCVSAKSPQHCMERIQAEQVDAVTLSGEDIYTAGKTYGLVPAAGEHYAPEDSSNSYYVVAVVRRDSSHAFTLDELRGKRSCHAGFGSPAGWDVPVGALIQRGFIRPKDCDVLTAVSEFFNASCVPVNNPKNYPSSLCALCVGDEQGRNKCVGNSQERYYGYRGAFRCLVENAGDVAFVRHTTVFDNTNGHNSEPWAAELRSEDYELLCPNGARAEVSQFAACNLAQIPPHAVMVRPDTNIFTVYGLLDKAQDLFGDDHNKNGFKMFDSSNYHGQDLLFKDATVRAVPVGEKTTYRGWLGLDYVAALEGMSSQQC", "values": [{"measurement": "Expression of the LRP1B receptor", "setting": "[1]", "value": "induces the expression"}, {"measurement": "Expression of the Megalin receptor", "setting": "[2]", "value": "not"}, {"measurement": "Brain/serum ratio", "setting": "[3]", "value": 0.025}, {"measurement": "Effect on the morphology of U-87 cells", "setting": "[4]", "value": "no discernable effect on the morphology"}, {"measurement": "Expression of the Cubilin receptor", "setting": "[5]", "value": "induces the expression"}]}, {"molecule": "lactoferrin: lactoferrin (Lf), LRP ligand used as competitor (protein, UniProt P02788 20-710, looked up) Lactotransferrin: GRRRSVQWCAVSQPEATKCFQWQRNMRKVRGPPVSCIKRDSPIQCIQAIAENRADAVTLDGGFIYEAGLAPYKLRPVAAEVYGTERQPRTHYYAVAVVKKGGSFQLNELQGLKSCHTGLRRTAGWNVPIGTLRPFLNWTGPPEPIEAAVARFFSASCVPGADKGQFPNLCRLCAGTGENKCAFSSQEPYFSYSGAFKCLRDGAGDVAFIRESTVFEDLSDEAERDEYELLCPDNTRKPVDKFKDCHLARVPSHAVVARSVNGKEDAIWNLLRQAQEKFGKDKSPKFQLFGSPSGQKDLLFKDSAIGFSRVPPRIDSGLYLGSGYFTAIQNLRKSEEEVAARRARVVWCAVGEQELRKCNQWSGLSEGSVTCSSASTTEDCIALVLKGEADAMSLDGGYVYTAGKCGLVPVLAENYKSQQSSDPDPNCVDRPVEGYLAVAVVRRSDTSLTWNSVKGKKSCHTAVDRTAGWNIPMGLLFNQTGSCKFDEYFSQSCAPGSDPRSNLCALCIGDEQGENKCVPNSNERYYGYTGAFRCLAENAGDVAFVKDVTVLQNTDGNNNEAWAKDLKLADFALLCLDGKRKPVTEARSCHLAMAPNHAVVSRMDKVERLKQVLLHQQAKFGRNGSDCPDKFCLFQSETKNLLFNDNTECLARLHGKTTYEKYLGPQYVAGITNLKKCSTSPLLEACEFLRK", "values": [{"measurement": "Kd", "setting": "[6]; Site 1, published value", "value": 35, "unit": "nM"}, {"measurement": "Kd", "setting": "[6]; Site 2, published value", "value": 1900, "unit": "nM"}, {"measurement": "Binding to Megalin", "setting": "[7]", "value": "Yes"}]}]}
